Source: the PETadex activity labels (doi:10.1002/anie.202203061)

Columns and labels:
PET [1] = test: Proxy for plastic degradation [Released monomer concentration (HPLC/LC-MS) (TPA)]
PET [2] = test: Proxy for plastic degradation [Released monomer concentration (HPLC/LC-MS) (MHET)]
[3] = Melting temperature [DSF / Thermofluor]; conditions: pH 7.5; part of the chain shown

B1: unnamed (protein)
chain: MNKSILEKIAVGTSALLFSVSAFSFTPSPTPDPDPEPQPCQGECDFTRGPAPSSSYLEASSGPYSVNTVNVSRSVSGFGGGTIHYPTNTTGTMGAIAIVPGFLAGESSIAWWGPRLASHGFVVITIATNSTFDQPASRETQLGRALDYVISQSNSNSSDISGMVDSTRVGAMGWSMGGGGALRIASGSRLSAAIPLAPWHTGSNDFDEIDTPTMIIACENDSTAPVRSHASPFYNSIPSTTDKALLEINNGSHSCANGGGSNGGLLGKYGVSWMKRFIDEDTRYSQFLCGPNHASNSAISEYRETCDY
Proxy for plastic degradation (PET [1]; 30 °C): 20 µM | Proxy for plastic degradation (PET [1]; 37 °C): 20 µM | Proxy for plastic degradation (PET [1]; 45 °C): 20 µM | Proxy for plastic degradation (PET [1]; 55 °C): 20 µM | Proxy for plastic degradation (PET [1]; 65 °C): 20 µM | Proxy for plastic degradation (PET [2]; 30 °C): 3 µM | Proxy for plastic degradation (PET [2]; 37 °C): 2 µM | Proxy for plastic degradation (PET [2]; 45 °C): 2 µM | Proxy for plastic degradation (PET [2]; 55 °C): 1 µM | Proxy for plastic degradation (PET [2]; 65 °C): 1 µM

B2: unnamed (protein)
chain: MNFPRASRLMQAAVLGGLMAVSAAATAQTNPYARGPNPTAASLEASAGPFTVRSFTVSRPSGYGAGTVYYPTNAGGTVGAIAIVPGYTARQSSIKWWGPRLASHGFVVITIDTNSTLDQPSSRSSQQMAALRQVASLNGTSSSPIYGKVDTARMGVMGWSMGGGGSLISAANNPSLKAAAPQAPWDSSTNFSSVTVPTLIFACENDSIAPVNSSALPIYDSMSRNAKQFLEINGGSHSCANSGNSNQALIGKKGVAWMKRFMDNDTRYSTFACENPNSTRVSDFRTANCS
Melting temperature [3]: 42 °C | Proxy for plastic degradation (PET [1]; 30 °C, part of the chain shown): 30 µM | Proxy for plastic degradation (PET [1]; 37 °C, part of the chain shown): 25 µM | Proxy for plastic degradation (PET [1]; 45 °C, part of the chain shown): 20 µM | Proxy for plastic degradation (PET [1]; 55 °C, part of the chain shown): 20 µM | Proxy for plastic degradation (PET [1]; 65 °C, part of the chain shown): 10 µM | Proxy for plastic degradation (PET [2]; 30 °C, part of the chain shown): 3 µM | Proxy for plastic degradation (PET [2]; 37 °C, part of the chain shown): 2 µM | Proxy for plastic degradation (PET [2]; 45 °C, part of the chain shown): 2 µM | Proxy for plastic degradation (PET [2]; 55 °C, part of the chain shown): 1 µM | Proxy for plastic degradation (PET [2]; 65 °C, part of the chain shown): 1 µM
